The results in this text go back to publication doi:10.1101/2020.10.06.328112.

Where two headings read alike, the source gives them in different places.

In assay [1] the target is Recombinant human cyclophilin A (human) (UniProt P62937). Briefly: native MS.
For assay [2] the target is unchanged. Description: native MS. The source holds these as a separate data set.

Consider “Recombinant human cyclophilin A (from UniProt P62937 1-165) (enzyme)”, for which the stoichiometry N in assay [1] and in assay [2] was 2 in each case.

As usually defined, the stoichiometry N is a count of units in the complex or per binding partner.
